In the supplement of paper PMC10567573:

B1: NECAB1 (parent)
chain: NLDTEELCEYFSQHLGEYENVLAA
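Further: lentivirally expressed fusions sorted by FACS into six bins by GFP to DsRed ratio, PSI derived from sequencing read proportions per bin multiplied by bin number.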

Variants of: B1
Assay: protein stability index of a GFP-peptide fusion (GPS, HEK-293T) (PSI 1-6); higher = more stable
Conditions: c terminus: a fixed tail appended
For NLDTEELCEYFSQRLGEYENVLAA [H14R], the protein stability index was 2.12.
For NLDTEELCEYFSQVLGEYENVLAA [H14V], the protein stability index was 3.01.
Variant NLDTEELCEYFSQFLGEYENVLAA [H14F] has a protein stability index of 2.02.
NLDTEELCEYFSQELGEYENVLAA [H14E] gave a protein stability index of 4.47.
In the case of NLDTEELCEYFSQLLGEYENVLAA [H14L], the protein stability index is reported as 2.09.
In the case of NLDTEELCEYFSQMLGEYENVLAA [H14M], the protein stability index is reported as 2.98.
Work on NLDTEELCEYFSQGLGEYENVLAA [H14G] yielded a protein stability index of 3.81.
Variant NLDTEELCEYFSQQLGEYENVLAA [H14Q] has a protein stability index of 3.35.
Variant NLDTEELCEYFSQWLGEYENVLAA [H14W] has a protein stability index of 1.84.
NLDTEELCEYFSQNLGEYENVLAA [H14N] showed a protein stability index of 2.55.
NLDTEELCEYFSQDLGEYENVLAA [H14D] gave a protein stability index of 3.86.
NLDTEELCEYFSQTLGEYENVLAA [H14T] showed a protein stability index of 4.11.
NLDTEELCEYFSQALGEYENVLAA [H14A] showed a protein stability index of 3.31.
With NLDTEELCEYFSQKLGEYENVLAA [H14K] the protein stability index was 2.73.
Work on NLDTEELCEYFSQYLGEYENVLAA [H14Y] yielded a protein stability index of 2.19.
For NLDTEELCEYFSQILGEYENVLAA [H14I], the protein stability index was 1.87.
NLDTEELCEYFSQCLGEYENVLAA [H14C] gave a protein stability index of 3.63.
In the case of NLDTEELCEYFSQPLGEYENVLAA [H14P], the protein stability index is reported as 4.44.
NLDTEELCEYFSQSLGEYENVLAA [H14S] showed a protein stability index of 3.81.
NLDTEELCEYFSCHLGEYENVLAA [Q13C] showed a protein stability index of 2.06.
With NLDTEELCEYFSYHLGEYENVLAA [Q13Y] the protein stability index was 2.2.
Variant NLDTEELCEYFSSHLGEYENVLAA [Q13S] has a protein stability index of 2.87.
Work on NLDTEELCEYFSIHLGEYENVLAA [Q13I] yielded a protein stability index of 2.19.
NLDTEELCEYFSTHLGEYENVLAA [Q13T] gave a protein stability index of 3.27.
For NLDTEELCEYFSLHLGEYENVLAA [Q13L], the protein stability index was 2.08.
With NLDTEELCEYFSKHLGEYENVLAA [Q13K] the protein stability index was 2.36.
Variant NLDTEELCEYFSHHLGEYENVLAA [Q13H] has a protein stability index of 2.32.
NLDTEELCEYFSNHLGEYENVLAA [Q13N] gave a protein stability index of 2.89.
In the case of NLDTEELCEYFSVHLGEYENVLAA [Q13V], the protein stability index is reported as 2.7.
NLDTEELCEYFSWHLGEYENVLAA [Q13W] gave a protein stability index of 2.1.
Work on NLDTEELCEYFSAHLGEYENVLAA [Q13A] yielded a protein stability index of 2.5.
Variant NLDTEELCEYFSPHLGEYENVLAA [Q13P] has a protein stability index of 3.71.
NLDTEELCEYFSEHLGEYENVLAA [Q13E] showed a protein stability index of 2.83.
NLDTEELCEYFSDHLGEYENVLAA [Q13D] showed a protein stability index of 4.13.
NLDTEELCEYFSFHLGEYENVLAA [Q13F] showed a protein stability index of 2.27.
Variant NLDTEELCEYFSMHLGEYENVLAA [Q13M] has a protein stability index of 2.06.
For NLDTEELCEYFSGHLGEYENVLAA [Q13G], the protein stability index was 3.3.
With NLDTEELCEYFSRHLGEYENVLAA [Q13R] the protein stability index was 3.25.
Variant NLDTEELCEYFTQHLGEYENVLAA [S12T] has a protein stability index of 2.91.
Variant NLDTEELCEYFEQHLGEYENVLAA [S12E] has a protein stability index of 3.83.
Variant NLDTEELCEYFCQHLGEYENVLAA [S12C] has a protein stability index of 2.53.
With NLDTEELCEYFMQHLGEYENVLAA [S12M] the protein stability index was 1.98.
In the case of NLDTEELCEYFKQHLGEYENVLAA [S12K], the protein stability index is reported as 2.09.
With NLDTEELCEYFHQHLGEYENVLAA [S12H] the protein stability index was 2.88.
In the case of NLDTEELCEYFLQHLGEYENVLAA [S12L], the protein stability index is reported as 1.92.
With NLDTEELCEYFGQHLGEYENVLAA [S12G] the protein stability index was 4.
NLDTEELCEYFYQHLGEYENVLAA [S12Y] showed a protein stability index of 2.91.
In the case of NLDTEELCEYFNQHLGEYENVLAA [S12N], the protein stability index is reported as 3.07.
Variant NLDTEELCEYFAQHLGEYENVLAA [S12A] has a protein stability index of 2.59.
NLDTEELCEYFVQHLGEYENVLAA [S12V] gave a protein stability index of 2.28.
Work on NLDTEELCEYFRQHLGEYENVLAA [S12R] yielded a protein stability index of 2.
Variant NLDTEELCEYFWQHLGEYENVLAA [S12W] has a protein stability index of 3.15.
NLDTEELCEYFFQHLGEYENVLAA [S12F] gave a protein stability index of 3.17.
NLDTEELCEYFDQHLGEYENVLAA [S12D] gave a protein stability index of 4.
NLDTEELCEYFPQHLGEYENVLAA [S12P] gave a protein stability index of 4.53.
Work on NLDTEELCEYFIQHLGEYENVLAA [S12I] yielded a protein stability index of 2.68.
With NLDTEELCEYFQQHLGEYENVLAA [S12Q] the protein stability index was 2.55.
NLDTEELCEYISQHLGEYENVLAA [F11I] gave a protein stability index of 3.59.
In the case of NLDTEELCEYTSQHLGEYENVLAA [F11T], the protein stability index is reported as 4.82.
For NLDTEELCEYQSQHLGEYENVLAA [F11Q], the protein stability index was 4.44.
With NLDTEELCEYYSQHLGEYENVLAA [F11Y] the protein stability index was 4.33.
For NLDTEELCEYGSQHLGEYENVLAA [F11G], the protein stability index was 4.55.
Variant NLDTEELCEYNSQHLGEYENVLAA [F11N] has a protein stability index of 5.01.
For NLDTEELCEYVSQHLGEYENVLAA [F11V], the protein stability index was 3.9.
In the case of NLDTEELCEYSSQHLGEYENVLAA [F11S], the protein stability index is reported as 4.65.
NLDTEELCEYESQHLGEYENVLAA [F11E] gave a protein stability index of 5.25.
With NLDTEELCEYASQHLGEYENVLAA [F11A] the protein stability index was 4.18.
In the case of NLDTEELCEYHSQHLGEYENVLAA [F11H], the protein stability index is reported as 4.26.
With NLDTEELCEYWSQHLGEYENVLAA [F11W] the protein stability index was 3.85.
For NLDTEELCEYMSQHLGEYENVLAA [F11M], the protein stability index was 3.48.
For NLDTEELCEYLSQHLGEYENVLAA [F11L], the protein stability index was 2.
With NLDTEELCEYCSQHLGEYENVLAA [F11C] the protein stability index was 4.03.
NLDTEELCEYDSQHLGEYENVLAA [F11D] gave a protein stability index of 4.87.
In the case of NLDTEELCEYKSQHLGEYENVLAA [F11K], the protein stability index is reported as 5.08.
Variant NLDTEELCEYRSQHLGEYENVLAA [F11R] has a protein stability index of 5.19.
NLDTEELCEYPSQHLGEYENVLAA [F11P] gave a protein stability index of 5.13.
NLDTEELCEYFSQHPGEYENVLAA [L15P] gave a protein stability index of 4.55.
Variant NLDTEELCEYFSQHHGEYENVLAA [L15H] has a protein stability index of 3.91.
For NLDTEELCEYFSQHEGEYENVLAA [L15E], the protein stability index was 4.45.
For NLDTEELCEYFSQHNGEYENVLAA [L15N], the protein stability index was 4.48.
For NLDTEELCEYFSQHAGEYENVLAA [L15A], the protein stability index was 3.36.
Work on NLDTEELCEYFSQHDGEYENVLAA [L15D] yielded a protein stability index of 4.63.
Work on NLDTEELCEYFSQHKGEYENVLAA [L15K] yielded a protein stability index of 4.02.
In the case of NLDTEELCEYFSQHFGEYENVLAA [L15F], the protein stability index is reported as 2.94.
For NLDTEELCEYFSQHMGEYENVLAA [L15M], the protein stability index was 3.07.
With NLDTEELCEYFSQHIGEYENVLAA [L15I] the protein stability index was 1.97.
NLDTEELCEYFSQHGGEYENVLAA [L15G] gave a protein stability index of 4.38.
NLDTEELCEYFSQHCGEYENVLAA [L15C] gave a protein stability index of 2.92.
Variant NLDTEELCETFSQHLGEYENVLAA [Y10T] has a protein stability index of 4.59.
In the case of NLDTEELCERFSQHLGEYENVLAA [Y10R], the protein stability index is reported as 4.08.
For NLDTEELCEVFSQHLGEYENVLAA [Y10V], the protein stability index was 4.24.
Work on NLDTEELCEWFSQHLGEYENVLAA [Y10W] yielded a protein stability index of 2.22.
Work on NLDTEELCESFSQHLGEYENVLAA [Y10S] yielded a protein stability index of 5.13.
Work on NLDTEELCEQFSQHLGEYENVLAA [Y10Q] yielded a protein stability index of 4.67.
